Results from patent US20200087363A1 (IMMATICS BIOTECHNOLOGIES, published 2020).

B1: EELRMLSF (peptide)
peptide: EELRMLSF
B2: MEFKTLNKN (peptide)
peptide: MEFKTLNKN
B3: EVEVGEVKSW (peptide)
peptide: EVEVGEVKSW
B4: MEAELVRRI (peptide)
peptide: MEAELVRRI
B5: AEIEADRSYQH (peptide)
peptide: AEIEADRSYQH
B6: TELQIPSF (peptide)
peptide: TELQIPSF
B7: KESDAGRYY (peptide)
peptide: KESDAGRYY
B8: KESDAGKYY (peptide)
peptide: KESDAGKYY
B9: LEVLHQGQW (peptide)
peptide: LEVLHQGQW
B10: EEIEAHIAL (peptide)
peptide: EEIEAHIAL
B11: VEVKYEGHW (peptide)
peptide: VEVKYEGHW
B12: TELTEARVQVW (peptide)
peptide: TELTEARVQVW
B13: IEIILLSGSL (peptide)
peptide: IEIILLSGSL
B14: KEVDPTGHSF (peptide)
peptide: KEVDPTGHSF
B15: SEVPVDSHYY (peptide)
peptide: SEVPVDSHYY
B16: IEIKDRLQL (peptide)
peptide: IEIKDRLQL
B17: MEELRMLSF (peptide)
peptide: MEELRMLSF
B18: EEAMKRLSY (peptide)
peptide: EEAMKRLSY
B19: SEASQSPQY (peptide)
peptide: SEASQSPQY
B20: RMLSFQQMTW (peptide)
peptide: RMLSFQQMTW
B21: EKGLISAF (peptide)
peptide: EKGLISAF
B22: EAYDIELNKW (peptide)
peptide: EAYDIELNKW
B23: AEANPRDLGASW (peptide)
peptide: AEANPRDLGASW
B24: REMFVFKDQW (peptide)
peptide: REMFVFKDQW
B25: GESVSWHLF (peptide)
peptide: GESVSWHLF
B26: SEKWFRMGF (peptide)
peptide: SEKWFRMGF
B27: KEAPNIVTL (peptide)
peptide: KEAPNIVTL
B28: AETEPERHLG (peptide)
peptide: AETEPERHLG
B29: HENLIEDF (peptide)
peptide: HENLIEDF
B30: TEHSGIYSC (peptide)
peptide: TEHSGIYSC
B31: QEIDRGQYI (peptide)
peptide: QEIDRGQYI
B32: EEMPEEIHL (peptide)
peptide: EEMPEEIHL
B33: AESDFSNNML (peptide)
peptide: AESDFSNNML
B34: RYFDENIQKFIW (peptide)
peptide: RYFDENIQKFIW
B35: EEVQDGKVI (peptide)
peptide: EEVQDGKVI
B36: IEAYLERIGY (peptide)
peptide: IEAYLERIGY
B37: EEQDFINNRY (peptide)
peptide: EEQDFINNRY
B38: VEEERYTGQW (peptide)
peptide: VEEERYTGQW
B39: IEAPKLMVV (peptide)
peptide: IEAPKLMVV
B40: NEAGEMIKHY (peptide)
peptide: NEAGEMIKHY
B41: EMPGGPVW (peptide)
peptide: EMPGGPVW
B42: DEDGKIVGY (peptide)
peptide: DEDGKIVGY
B43: KEVDPASNTYTL (peptide)
peptide: KEVDPASNTYTL
B44: NENLDYAIL (peptide)
peptide: NENLDYAIL
B45: HEIIIRSHW (peptide)
peptide: HEIIIRSHW
B46: YENIPVDKV (peptide)
peptide: YENIPVDKV
B47: RESHLTEIRQY (peptide)
peptide: RESHLTEIRQY
B48: VEVNGVPRW (peptide)
peptide: VEVNGVPRW
B49: AEIATTGQLY (peptide)
peptide: AEIATTGQLY
B50: AETENRYCV (peptide)
peptide: AETENRYCV
B51: NESDRLVYF (peptide)
peptide: NESDRLVYF
B52: SEVFHVSEA (peptide)
peptide: SEVFHVSEA
B53: VEAQDRETW (peptide)
peptide: VEAQDRETW
B54: KEHNSSVPWSS (peptide)
peptide: KEHNSSVPWSS
B55: VTEGAVEVKY (peptide)
peptide: VTEGAVEVKY
B56: SEVPVDSHY (peptide)
peptide: SEVPVDSHY
B57: SQDVAGTTF (peptide)
peptide: SQDVAGTTF
B58: AEDEDGKIVGY (peptide)
peptide: AEDEDGKIVGY
B59: GESSEVKAVL (peptide)
peptide: GESSEVKAVL
B60: QEPFTRPVL (peptide)
peptide: QEPFTRPVL
B61: QEAPRPASSL (peptide)
peptide: QEAPRPASSL
B62: AESFTSGRHYW (peptide)
peptide: AESFTSGRHYW
B63: TEDARHPESW (peptide)
peptide: TEDARHPESW
B64: REYQEVMNSKL (peptide)
peptide: REYQEVMNSKL
B65: QELFLHPVL (peptide)
peptide: QELFLHPVL
B66: SEIYQPRGF (peptide)
peptide: SEIYQPRGF
B67: WEVVHTVF (peptide)
peptide: WEVVHTVF
B68: DEINHQSL (peptide)
peptide: DEINHQSL
B69: QEIDQKRLEF (peptide)
peptide: QEIDQKRLEF
B70: EEGPSVPKIY (peptide)
peptide: EEGPSVPKIY

Each binder was assayed against T1, HLA-B*44:05 (human) (assay: UV peptide exchange, anti-b2m ELISA).
T1 construct: also called peptide-receptive MHC class I molecule
Experimental: Only peptide candidates that can effectively bind and stabilize the peptide-receptive MHC molecules prevent dissociation of the MHC complexes. To determine the yield of the exchange reaction, an ELISA was performed based on the detection of the light chain (β2m) of stabilized MHC complexes. The assay was performed as generally described in Rodenko et al. (Rodenko et al., 2006)
96 well MAXISorp plates (NUNC) were coated over night with 2 ug/ml streptavidin in PBS at room temperature, washed 4× and blocked for 1 h at 37° C. in 2% BSA containing blocking buffer. […] Peptide-MHC monomers of the UV-exchange reaction were diluted 100-fold in blocking buffer. Samples were incubated for 1 h at 37° C., washed four times, incubated with 2 ug/ml HRP conjugated anti-β2m for 1 h at 37° C., washed again and detected with TMB solution that is stopped with […]. Absorption was measured at 450 nm.
In the case of B1, the peptide exchange yield is reported as 20 to 50%. For B2, the peptide exchange yield was 20 to 50%. For B3, the peptide exchange yield was 10 to 20%. Binder B4 has a peptide exchange yield of 50 to 75%. For B5, the peptide exchange yield was 50 to 75%. In the case of B6, the peptide exchange yield is reported as 20 to 50%. In the case of B7, the peptide exchange yield is reported as 50 to 75%. B8 was tested, and the peptide exchange yield was 50 to 75%. Binder B9 has a peptide exchange yield of 50 to 75%. B10 was tested, and the peptide exchange yield was 50 to 75%. Work on B11 yielded a peptide exchange yield of over 75%. With B12 the peptide exchange yield was 50 to 75%. With B13 the peptide exchange yield was over 75%. B14 gave a peptide exchange yield of 50 to 75%. In the case of B15, the peptide exchange yield is reported as 50 to 75%. In the case of B16, the peptide exchange yield is reported as 50 to 75%. In the case of B17, the peptide exchange yield is reported as 50 to 75%. With B18 the peptide exchange yield was 20 to 50%. Binder B19 has a peptide exchange yield of 50 to 75%. With B20 the peptide exchange yield was 20 to 50%. B21 showed a peptide exchange yield of 20 to 50%. Work on B22 yielded a peptide exchange yield of 50 to 75%. Work on B23 yielded a peptide exchange yield of 50 to 75%. Work on B24 yielded a peptide exchange yield of over 75%. B25 showed a peptide exchange yield of 50 to 75%. With B26 the peptide exchange yield was 50 to 75%. B27 showed a peptide exchange yield of over 75%. B28 gave a peptide exchange yield of 20 to 50%. B29 gave a peptide exchange yield of 50 to 75%. B30 gave a peptide exchange yield of 20 to 50%. For B31, the peptide exchange yield was over 75%. B32 gave a peptide exchange yield of 50 to 75%. B33 gave a peptide exchange yield of 50 to 75%. In the case of B34, the peptide exchange yield is reported as 50 to 75%. Work on B35 yielded a peptide exchange yield of 20 to 50%. B36 was tested, and the peptide exchange yield was 50 to 75%. B37 was tested, and the peptide exchange yield was over 75%. B38 showed a peptide exchange yield of 50 to 75%. With B39 the peptide exchange yield was 10 to 20%. B40 was tested, and the peptide exchange yield was 20 to 50%. In the case of B41, the peptide exchange yield is reported as 50 to 75%. B42 showed a peptide exchange yield of 20 to 50%. In the case of B43, the peptide exchange yield is reported as 20 to 50%. For B44, the peptide exchange yield was over 75%. B45 was tested, and the peptide exchange yield was 50 to 75%. B46 gave a peptide exchange yield of 50 to 75%. B47 was tested, and the peptide exchange yield was 20 to 50%. B48 gave a peptide exchange yield of over 75%. For B49, the peptide exchange yield was 50 to 75%. B50 showed a peptide exchange yield of 50 to 75%. B51 was tested, and the peptide exchange yield was 50 to 75%. Work on B52 yielded a peptide exchange yield of 20 to 50%. In the case of B53, the peptide exchange yield is reported as 20 to 50%. Binder B54 has a peptide exchange yield of over 75%. Binder B55 has a peptide exchange yield of 10 to 20%. B56 showed a peptide exchange yield of 50 to 75%. B57 was tested, and the peptide exchange yield was 20 to 50%. Binder B58 has a peptide exchange yield of 20 to 50%. For B59, the peptide exchange yield was 50 to 75%. In the case of B60, the peptide exchange yield is reported as 50 to 75%. In the case of B61, the peptide exchange yield is reported as 50 to 75%. In the case of B62, the peptide exchange yield is reported as over 75%. For B63, the peptide exchange yield was over 75%. Work on B64 yielded a peptide exchange yield of 50 to 75%. B65 was tested, and the peptide exchange yield was over 75%. In the case of B66, the peptide exchange yield is reported as 50 to 75%. For B67, the peptide exchange yield was 20 to 50%. Work on B68 yielded a peptide exchange yield of 20 to 50%. For B69, the peptide exchange yield was 20 to 50%. In the case of B70, the peptide exchange yield is reported as 20 to 50%.
